From the supplement of paper PMC9170038

Tested on: MS2 coat protein
Assay: apparent KD of MS2 coat protein; designed switch direction (-1 OFF switch, 1 ON switch): 1; higher = weaker reporter binding
In short: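 RNA switches sharing common flanks were transcribed by stalled E. coli RNA polymerase on Illumina chips. A doubling series of SNAP-549-labelled MS2 coat protein, from 0.7 or 1.5 nM to 3 µM, was applied in Tris-HCl pH 7.5 buffer with KCl, MgCl2, BSA, DTT, tRNA and Tween-20. Each step lasted 0.8–1.5 h at the bottom of the series and 10–20 min at the top. Normalised cluster fluorescence was curve-fitted, giving apparent KD as the per-design median over clusters.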

[1] = input ligand: microRNA oligo, concentration not stated
[2] = Eterna round: R95, input ligand: FMN 200 uM
[3] = Eterna round: R95, input ligand: microRNA oligo, concentration not stated
[4] = Eterna round: R95, input ligand: none

Sequence | apparent KD of MS2 coat protein (input ligand: FMN 200 uM) [µM] | apparent KD of MS2 coat protein [1] [µM] | apparent KD of MS2 coat protein (input ligand: none) [µM] | apparent KD of MS2 coat protein [2] [µM] | apparent KD of MS2 coat protein [3] [µM] | apparent KD of MS2 coat protein [4] [µM]
GUCCGUACCACAGGAUAUCCUAGUCAUGAUCUAGGAGAAGGGUGGCCACAUGAGGAUCACCCAUGUGAAGUGCCAGAGGCACGA [MOD Xexeraed] (Eterna round: R96, puzzle: Same State NG 1) | 0.0352 | 0.046 | 0.0533 | – | – | –
GUGAAGAAUUAAGGAUAUUGAAUACAUAUGUUUAACAUGAGGAUCACCCAUGUGGGUUGCGGUAUCGAGAAGGUAAAUUACUGG [salish99_SSNG2_r04_032] (Eterna round: R96, puzzle: Same State NG 2) | – | 0.0817 | – | – | – | –
GUGCAAAUCAUAGGAUAUGGGCGGGAAUGCCGUCCAGAAGGAUGAACAUGAGGAUCACCCAUGUCCAGCCGCAAAUACGCGGCC [Sodirien] (Eterna round: R96, puzzle: Same State NG 1) | 0.0938 | 0.0951 | 0.192 | – | – | –
GUGCAACCGUGUGAGGAUAUCGGUGGUAAAACAUGAGGAUCACCCAUGUCCGAAGCUCGGACCUCCGAGAAGGCGCACAGUUGCA [Same State 2 - Mod of Erisin v.1] (puzzle: Same State 2) | – | – | – | 0.00682 | 0.00546 | 0.00708
GUGCGGCUGCCACAGGAUAUACGUGGAUCGACAUGAGGAUCACCCAUGUAUAUCCUAAUAAUUGCGUAGAAGGGUGGUCAGCCGG [Anzaenenes] (puzzle: Same State 2) | – | – | – | 0.143 | 0.608 | 0.825
GUGCUCGUGUAAGGAUAUGCAGCCGUUUCGGCUGCAGAAGGUACUAUAAUACAUGAGGAUCACCCAUGUCUCUAUUGUUUGGUG [salish99_SSNG1_r04_906] (Eterna round: R96, puzzle: Same State NG 1) | – | 0.0763 | – | – | – | –
GUGCUCGUGUGAGGAUAUGCUUCCGUUUCGGCUGCAGAAGGUACUAUUAUACAUGAGGAUCACCCAUGUCUCUUUUCUCCGGUG [salish99_SSNG1_r04_913] (Eterna round: R96, puzzle: Same State NG 1) | 0.0383 | 0.0274 | 0.0372 | – | – | –
GUGGCCCAGGCACAGGAUAUGUUUCUCGUAACAUGAGGAUCACCCAUGUGCCUAUGAGAUUGUUUGCAGAAGGGUGCACGCCACG [JL Atiinbe mod 03] (Eterna round: R96, puzzle: Same State 2) | 0.0183 | 0.146 | 0.29 | – | – | –
GUGGCCCAGGCACAGGAUAUGUUUCUCGUAACAUGAGGAUCACCCAUGUGCCUAUGAGAUUGUUUGCAGAAGGGUGCACGCCACG [JL Atiinbe mod 03] (puzzle: Same State 2) | – | – | – | 0.021 | 0.348 | 0.541
GUGGCCCAGGCACAGGAUAUGUUUCUCGUAACAUGAGGAUCACCCAUGUGCCUAUGAGAUUUAAUGCAGAAGGGUGCACGCCACU [Mat - Same State 2 - Mod of UCT - D79] (puzzle: Same State 2) | – | – | – | 0.0241 | 0.0958 | 0.184
GUGGUCAGACAUGAGGAUCACCCAUGUGGAAUAAAUAACAGACAGGAUAUAUAAUAUAGGAUAUAGUAGAAGGGUCGAUUGGUG (Eterna round: R96, puzzle: Same State NG 3) | – | 0.0697 | – | – | – | –
GUGGUCAGACAUGAGGAUCACCCAUGUGGAAUAAAUAACAGACAGGAUAUCGAAUAUAGGAUAUAUGAGAAGGGUCGAUUGGUG (Eterna round: R96, puzzle: Same State NG 3) | 0.0634 | 0.063 | 0.0907 | – | – | –
GUGGUCAGACAUGAGGAUCACCCAUGUGGAAUAAAUAACAGACAGGAUAUCUAAUAUAGGAUAUAGGAGAAGGGUCGAUUGGUG (Eterna round: R96, puzzle: Same State NG 3) | – | 0.0735 | – | – | – | –
GUGGUCAGACAUGAGGAUCACCCAUGUGGAAUAAAUAACGGACAGGAUAUUCAAUAUAGGAUAUAGAAGAAGGGUUGAUUGGUG (Eterna round: R96, puzzle: Same State NG 3) | 0.143 | 0.0845 | 0.0909 | – | – | –
GUGGUCAGACAUGAGGAUCACCCAUGUGGAAUAAAUAACGGUGAGGAUAUCGAAUAUAGGAUAUACGAGAAGGCAUGAUUGGUG (Eterna round: R96, puzzle: Same State NG 3) | 0.165 | 0.0933 | 0.124 | – | – | –
GUGGUCAGACAUGAGGAUCACCCAUGUGGAAUAAAUAACGUACAGGAUAUUCAAUAUAGGAUAUAGAAGAAGGGUAGAUUGGUG (Eterna round: R96, puzzle: Same State NG 3) | 0.196 | 0.136 | 0.195 | – | – | –
GUGGUCAGACAUGAGGAUCACCCAUGUGGAAUAAAUAAGGACUAGGAUAUCGAAUAUAGGAUAUACGAGAAGGAGUGGUUGGUG (Eterna round: R96, puzzle: Same State NG 3) | 0.0811 | 0.0535 | 0.0679 | – | – | –
GUGGUCAGACAUGAGGAUCACCCAUGUGGAAUAAAUAAGGAGAAGGAUAUCGAAUAUAGGAUAUACGAGAAGGUCUGGUUGGUG (Eterna round: R96, puzzle: Same State NG 3) | – | 0.0752 | – | – | – | –
GUGGUCAGACAUGAGGAUCACCCAUGUGGAAUAAAUAAGGAGAAGGAUAUCGAAUAUAGGAUAUACGAGAAGGUUUGGUUGGUG (Eterna round: R96, puzzle: Same State NG 3) | 0.12 | 0.0673 | 0.0906 | – | – | –
GUGGUCAGACAUGAGGAUCACCCAUGUGGAAUAAAUAAGGAGAAGGAUAUUCAAUAUAGGAUAUAGAAGAAGGUCUGGUUGGUG (Eterna round: R96, puzzle: Same State NG 3) | – | 0.0637 | – | – | – | –
GUGGUCAGACAUGAGGAUCACCCAUGUGGAAUAAAUAAGGAGAAGGAUAUUUAAUAUAGGAUAUAAAAGAAGGUCUGGUUGGUG (Eterna round: R96, puzzle: Same State NG 3) | 0.0994 | 0.0556 | 0.0925 | – | – | –
GUGGUCAGACAUGAGGAUCACCCAUGUGGAAUAAAUAAGGAUCAGGAUAUGGAAUAUAGGAUAUACCAGAAGGGAUGGUUGGUG (Eterna round: R96, puzzle: Same State NG 3) | 0.0599 | 0.0417 | 0.0526 | – | – | –
GUGGUCAGACAUGAGGAUCACCCAUGUGGAAUAAAUAAGGCAUAGGAUAUAAAAUAUAGGAUAUAUUAGAAGGAUGGGUUGGUG (Eterna round: R96, puzzle: Same State NG 3) | 0.145 | 0.0837 | 0.144 | – | – | –
GUGGUCAGACAUGAGGAUCACCCAUGUGGAAUAAAUAAGGGAGAGGAUAUAAAAUAUAGGAUAUAUUAGAAGGCUCGGUUGGUG (Eterna round: R96, puzzle: Same State NG 3) | 0.0957 | 0.0827 | 0.0854 | – | – | –
GUGGUCAGACAUGAGGAUCACCCAUGUGGAAUAAAUAAGGUACAGGAUAUCUAAUAUAGGAUAUAAGAGAAGGGUAGGUUGGUG (Eterna round: R96, puzzle: Same State NG 3) | – | 0.0559 | – | – | – | –
GUGGUCAGACAUGAGGAUCACCCAUGUGGAAUAAAUAAGGUCAAGGAUAUGGAAUAUAGGAUAUACCAGAAGGUGAGGUUGGUG (Eterna round: R96, puzzle: Same State NG 3) | 0.245 | 0.167 | 0.225 | – | – | –
GUGGUGAAUUAAGGAUAUCGAGUCUAGAUGUUAAACAUGAGGAUCACCCAUGUGGGUUGCGGUAUCGAGAAGGUAAUUUACGGG [salish99_SSNG2_r04_507] (Eterna round: R96, puzzle: Same State NG 2) | 0.0254 | 0.0261 | 0.0472 | – | – | –
GUGGUGGGUUGAGGAUAUUGGUUGUUGUUGUCCCACAUGAGGAUCACCCAUGUGGGUUGUGGUUUUGAGAAGGUUGGUUGCCGG [salish99_SSNG2_r04_053] (Eterna round: R96, puzzle: Same State NG 2) | – | 0.015 | – | – | – | –
GUGGUGGGUUGAGGAUAUUGGUUGUUGUUGUUCCACAUGAGGAUCACCCAUGUGGGUUGUGGUUUUGAGAAGGUUGGUUGCUGG [salish99_SSNG2_r04_050] (Eterna round: R96, puzzle: Same State NG 2) | 0.0172 | 0.0142 | 0.0203 | – | – | –
GUGUGUUGCGGGCAGGAUAUGUAUUUGAGUACAUGAGGAUCACCCAUGUGCGCCUGUUUCAGGCGACAGAAGGGCCUAUCGCGAC [JL-ss2-3.27 ViennaUCT mod] (puzzle: Same State 2) | – | – | – | – | 0.106 | –
